Measurements reported in article PMC10025160, “Uncovering Zn^2+ as a cofactor of FAD-dependent Pseudomonas aeruginosa PAO1 D-2-hydroxyglutarate dehydrogenase” (The Journal of Biological Chemistry, 2023).

Substrate: O=C(O)C[C@@H](O)C(=O)O
Test: initial rates, oxygen consumption (Oxy-32 electrode)
Assay type: biochemical, Pseudomonas aeruginosa
Conditions: E-Zn^2+ form (purified with 1 mM ZnCl2, Zn:protein about 2:1), 1 mM PMS (fixed), 25 mM NaPO4, pH 7.4, 25 °C, apparent
Text: initial rates, oxygen consumption (Oxy-32 electrode) on PaD2HGDH

B1: PaD2HGDH (Pseudomonas aeruginosa PAO1) (protein)
chain: MTREALIESLKPLVEPGKLLDDAASLDAYGKDWTKHFAPAPLAIVFPKSVEQVQAIVRWANQHKVGLVPSGGRTGLSAAAVAANGEVVVAFDYMNRILDFNAFDRTVVCQPGVVTKQLQTFAEENGLYYPVDFASSGSSQIGGNIGTNAGGIKVIRYGMTRNWVAGMKVVTGKGDLLELNKDLIKNATGYDMRQLFIGAEGTLGFVVEATMRLERTPKNLTAMVLGTPDFDSIMPVLHAFQSKLDLTAFEFFSDKALAKVLARGDVPRAFETDCPFYALLEFEATTEEVANEALATFEHCVEQGWVLDGVMSQSEQQLQNLWKLREYISETISHWTPYKNDISVTVSRVPAFLKDIDAIVEANYPDFEVVWFGHIGDGNLHLNILKPENLGKDEFFAKCATVNKWVFETVEKYNGSISAEHGVGMTKRDYLTYTRSETEIAYMKALKAVFDPNGIMNPGKIFAE
notes: wild type, His-tagged, pET20b(+), expressed in E. coli Rosetta(DE3)pLysS, Ni-NTA purified
Km: 5.1 ± 0.4 mM
kcat: 38 ± 1 s⁻¹
kcat/Km: 7000 ± 500 M⁻¹ s⁻¹
